Test results from the DeepSol protein solubility set.

Assay: soluble on expression in E. coli; label from the status in PepcDB or PDB records

Sequence	soluble on expression in E. coli
EFSSEELIRMSNYLNELLVGVPVGQVRTRILEEMRNEKVLYDKLLARALQLSEQSLNDDGAQIFIEGQTNILEQPEFADSRRMRDLFRAFEEKNQLVGLLDRCLNAQGVQIFIGAETHLSQMEGLSIITSTYLTGKNTLGVLGVIGPTRMGYAKVIPIVDYTAKLVSRLLEG	not soluble
MYGKLNDLLEDLQEVLKHVNQHWQGGQKNMNKVDHHLQNVIEDIHDFMQGGGSGGKLQEMMKEFQQVLDEIKQQLQGGDNSLHNVHENIKEIFHHLEELVHR	soluble
SAPEENAGTELLLQSFERRFLAARTLRSFPWQSLEAKLRDSSDSELLRDILHKTVKHPVCVKHPPSVKYARCFLSELIKKHEAVHTEPLDELYEALAETLMAKESTQGHRSYLLPSGGSVTLSESTAIISYGTTGLVTWDAALYLAEWAIENPAVFTNRTVLELGSGAGLTGLAICKMCRPRAYIFSDCHSRVLEQLRGNVLLNGLSLEADITAKLDSPRVTVAQLDWDVATVHQLSAFQPDVVIAADVLYCPEAIMSLVGVLRRLAACREDQRAPEVYVAFTVRNPETCQLFTTELGRAGIRWEVEPRHEQKLFPYEEHLEMAMLNLTL	soluble
MAHHHHHHMDLNDFLRNTKTAAQDGSAGVRTLLSGHKRFADTNEASAEASSSGAGASGKRPRRSGTAEGLNIRAAQEALAQERGNTSAQAQQQRAQAELLSEQAAARMVHQVLEYVMQVELGGRHNAAKGGIAPFVPSAAQLAAEKAMWTPAAGYVIHHVVPATLDTSPHTLESLMSVTEKERVPDGVRALRGTLQVFDTERDLVGGVRTGMAPHLRTHVLEVLEKGLHGRAWLRDDAAVATQISALGKPTTPDKGPSSVLLFGDLATASVANSDATSSARDTASAGDEASKPRSKGFSLAAFLNGNDPTSSSSDGEDP	not soluble
MSSNFRHQLLSLSLLVGIAAPWAAFAQAPISSVGSGSVEDRVTQLERISNAHSQLLTQLQQQLSDNQSDIDSLRGQIQENQYQLNQVVERQKQILLQIDSLSSGGAAAQSTSGDQSGAAASTTPTADAGTANAGAPVKSGNANTDYNAAIALVQDKSRQDDAMVAFQNFIKNYPDSTYLPNANYWLGQLNYNKGKKDDAAYYFASVVKNYPKSPKAADAMFKVGVIMQDKGDTAKAKAVYQQVISKYPGTDGAKQAQKRLNAM	soluble
DKSNKLQNLVAEQLVGCGFNEILNNSLTRAAYYDGLESYPSKNLVMLLNPLSADLNCMRQTLLFGGLESIAHNANRKNADLKFFEFGNCYHFDAEKKNPEKVLAPYSEDYHLGLWVTGKMVSNSWAHADENTSVYELKAYVENIFKRLGLDLHSLVVGNLSDDIYSTALTVNTKGGKRLATFGVVTKKMLKAFDVDNEVYYADLNWKELM	soluble
MRIHILGICGTFMGGLAMLARSLGHEVTGSDANVYPPMSTLLEKQGIDLIQGYDASQLDPQPDLVIIGNAMTRGNPCVEAVLEKNIPFMSGPQWLHDFVLRDRWVLAVAGTHGKTTTAGMATWILEACGYKPGFVIGGVPGNFEVSARLGESPFFVIEADEYDCAFFDKRSKFVHYCPRTLILNNLEFDHADIFDDLKAIQKQFHHLVRIVPGQGRIIWPENDINLKQTMALGCWSEQELVGEQGHWQAKKLTTDASEWEVWLDGEKVGDVKWGLVGEHNMHNGLMAIAAARHVGVAPAEAASALGSFINARRRLELRGEANGVTVYDDFAHHPTAILATLAALRGKVGGTARIIAVLEPRSNTMKMGLCKDDLAPSLGRADEVFLLQPPHIPWQVAEVAEACVQPAHWSGDVDTLAEMVVKTAQPGDHILVMSNGGFGGIHQKLLDGLAKKAQNVTAY	not soluble
MNKDQSKIPQATAKRLPLYYRFLKNLHASGKQRVSSAELSDAVKVDSATIRRDFSYFGALGKKGYGYNVDYLLSFFRKTLDQDEMTDVILIGVGNLGTAFLHYNFTKNNNTKISMAFDINESKIGTEVGGVPVYNLDDLEQHVKDESVAILTVPAVAAQSITDRLVALGIKGILNFTPARLNVPEHIRIHHIDLAVELQSLVYFLKHYSVLEEIE	soluble
MDALAIINKYYPEDNELKHILLAHSRSVADKALWIAGKHPELNLDKQFLEEAAMLHDIGIFMTDAEGICCFGSYPYICHGYLGADLMRKEGFPRHALVCERHTGAGMSLQSIIDQQLPVPHRNMVPVSLEEQVICFADKFFSKTHLDREKSVEKALKSISRYGEDGIIRFNHWCECFL	soluble
MSLKYFEFTFHTSPCTETVNDVLAAVLGEAGFESFVESEGGLTAYIQQALCDENTIKNAITEFPLPDTEITYTYVEAEDKDWNEEWEKNFFQPIVIDNRCVIHSTFHKDVPQATYDIVINPQMAFGTGHHETTSLIIGELLDNELKDKSLLDMGCGTSILAILARMRGARPCIAIDIDEWCVRNSIENIELNHVDDIAVSQGDASSLVGKGPFDIIIANINRNILLNDMKQYVACMHPGSELYMSGFYVDDIPFIRREAEKNGLTFVHHKEKNRWAAVKFTYEGHHHHHH	soluble
FPAISEHFTEDYSSHTEQMLDLVLDSTDMRIEDGKRINPAFMFAAMLWYPLCALADKLMDQHNLCHYDAIMEASNIILDDQVRTIAIPRRHTATIREIWQLQLRLPRRNGKRAFRLMELNKFRAGFDFLEMRGEIEGGDTLKLAKWWETFQNAGREMRQAMAADLDGQAPKSGQRRRKTFRKKKSKPKS	not soluble
GAPRSHEVPLLVTLEELYLGKRKKIKVTRKRFIEHKVRNEENIVEVEIKPGWKDGTKLTYSGEGDQESPGTSPGDLVLIIQTKTHPRFTRDDCHLIMKVTIPLVRALTGFTCPVTTLDNRNLQIPIKEIVNPKTRKIVPNEGMPIKNQPGQKGDLILEFDICFPKSLTPEQKKLIKEALD	soluble
MISLEDASLTKKGIVKLSSATDSDSEALAATPKAVKTVMGEVRTKAPLDSPAFTGTPTTPTPPGDAKGLQTTNAEFVRKLIAALVGSVLEPLDTLQELADALGNDPNFATTVLNKLAGKQPLDETLTALSGKSVDGLIEYVGLRETISRAADALQKSQNGGDIPDKDLFVRRIGAARAFDGAVIIGCDDNPWTTAEFIVWLESQGAFNHPYWMCRGSWSYAYNKIITDTGCGNICLAGAVIEVMGVRGAMTIRVTTSHSVSGW	not soluble
MKEKIPFYNEKEFNEMMKKTKKGTFSGWYIINPENNSVEFSGSFNRQFKLNKPIIPVNTEYVTRKEFNEYKDSNDQRLIKIETTLTAQGEQINKLTQTVEKQGEQIRELQVEQKAQGEQIKAQGETLKLILQTLQKMSDRLDKIDPPK	soluble
MSSGSSNFLLVPIPEYPVLDCVPNKNVKIVVLGASNVGKTALIVRFLTKRFIGDYEANTGALYSRKINLDGEQVSLQVQDTPCVSLQDDADGLYCQEQINRSITGRTVMCSSSPSLTSTATAPSSLSTNMCAESTPAVTSLSSSWETRATFCEPDRSQIPKGRRWRMNWEGYTLRLRPGRTTRASRQLFCTYVRR	not soluble
MAHHHHHHMKGHIFYDVTEKGTPPAEYFVSSTGWGMSVVSPPNVGNCDEWETQVKAERIIVNCPDEMDVKAMCAWMERDGTTDGQAECWKMVEERMDKVGPIPRHIFDANKFVAHSAAIEDALDGINSRDGERHFTHRGVRLWYSGDPPQKVVSVVRARGEFGAGGFLNAAISVCLGRRIAHYFGGRDE	not soluble
MVPRTEIVAIEYGTPIEELKARFIESGISKIIVYKENIDNIIGYIHSSEMFREQTDWTKSVRQLPIAPETMGAHKLMKLFMQQKKSLAVVVDEFGGTSGIVALEDLVEEIFGEIEDEHDTTSYIA	not soluble
MAHHHHHHMGNGASVGENRHSQLFQQGYKSLQEGRYTYAEIYYDQAIERHEGHSFWTRLDDLIEWERRDKAGQKGTDAKQKTAYRDGGQEEAAFPEVRKDSLKEENEVNVEMGEAAGVGGSGKIEIPLDSRLADVVDYLVLRADIAESYMAEGRYEEATPHMDFLSSHTRVMLKFLQIARMTKAEESANSSNPLEGSTADAGADNAGGGNRRAHQGFMMVSDVERDSILDCFEQFLRMHWVSAMANSVFIVSERFKKGKSEKKHKKELDTAVVACAKIQEELYNVAKRRARSLSNSVVLSFLEGIMEELDAESSTTSITNERMGTANGKTRTNTLFEEQNNRSTGNRSANEIDMLTDRDECPIKVHLQMVYDRRSLCREVPAPQQAPTLRYITWIDDEIRRVVPGTNYNLEIQCGMVDEKRKKQLQKRSLKFAAQRNCNYNDRVLLGKSFDEENALLLFPVFLIQADVQFELGAATKGINALDIVDKLSTQLYGVGSLERQSIMRSVMESRKRGGSLFMMFED	soluble
MNVLVIGRGGREHALAWKFAQSEKVEKVYVAPGNEGMRDVATPIDIDENDFDALVLFAKENHVELTFVGPEIPLMNGIVDRFKEEGLRVFGPNKAAAVIEGSKAFTKELMKKYNIPTAAYETFTDYEEAVQYIEKVGAPIVIKADGLAAGKGVTVAMTLEEALQAAKEMLQDVKFGEASKKVVIEEFLDGQEFSLMAFVNGTTVHPMVIAQDHKRAFDGDKGPNTGGMGAYSPVPQISESAVQEAIETVLYPTAKAMIQENRSFTGILYAGLILTNDGPKVIEFNARFGDPETEVVLPRLENDLVDVCNAVLDESELTLQWSDEAVIGVVLAAKGYPEAYKKGDIIKGLDALQDVIVFHAGTAMKRGDFVTNGGRVLFVACKANSLQEAKDKVYKEIGKIESDVLFYRSDIGYRAIGHEMTRS	not soluble
MGSDKIHHHHHHMTTLLRTRRFPPLNALRAFEAAARHLNFRLAADELGVTQGAVAQQVRHLEDVVAVQLFRRLPRGLALTREGLEYFSSVQRALQIISDATDALGERPTVLAVSTTPSFASKWLIPRLADFGRLHPDIEVRVIADERLASFRADGVDIAIRLSKPPFPAGLAAELLAPLDIFAVASPKLLDSGPPIRTPADLSTHALLHDAHDLWPEFIEKLGGKGRADPTKGPRFSQSLLAIDAAVAGQGIALTSEPLVERDIAEGRLRRVFDFSFPMSLGFYVVFPQANAHSEALQAMRRWLFAQYGKA	not soluble
MKKRIIPIFVPHKGCPHDCIFCNQKKITGVSTDVTSEDARNIIEECLETIDKDADVEIAFFGGSFTAIDIDIQKSLLSVAKEYVEKGLVKDIRMSTRPDCIDEDILSMLKEYKTSIIELGVQSLDEKVLLDSIRGHQSEIVYKSSKMIKNSGIKLGLQMMIGLPADTEEKCIFTAKKFVELKPDCVRVYPTLVVKDTGLEKLMEQNKYNPFTLEESVNIVKKVLVLFYVNNINVIRVGLQATDDIQIGKAVLAGPYHPAFRELVEADMIKDYLEFVILQNKNIKQMLVKSNKKNISKIIGNKKTNVKYMEEKFGVLLKTQESDLDINQLEIVLDGKSLISANMRDIHRKLYDIYDL	not soluble
MKGVRSMMGNLVITIGRECGSAGRLIGQKLAADLGVKCYDKELLTLAAKNSGLCEELFKTHDEKPTSSFLYSLVMDTYSLGYNTSAYMDMPINHKIFLAQFDTIKKLAEEESCVIVGRCADYALADYPNTVSVFICGDEEDKIRHLMERHNVDEAKAKDIMIKTDKRRASYYNYYSSKRWGSCKSYDMCISSSAVGYDGAVDIIKEFAKKKQEFLKTKNYK	not soluble
MRTLAIDIGGTKIALAIVEEGTIIQRYQIATPVVQDVTKFVQAILEKVTEWLPSIDYVGVSTTGYVTPEGITSINPETLNFPVPFPLAQTLEQLTNKPVSILNDAQAAAWFEFVQLKNPSLNMAFITVSTGVGGGIIIDGKLHKGNSGLAGHIGHMSVAIEGPLCGCGQRGCVESMASGNAIQKESEATFTETMSNVELFKQAAFNPKAEAIINRSVQAVATLCCNLKACLDLDIIVLGGGIGLAEGYLERLNKAIQSRPSVFHIPVTPAHGDYDACLLGAAFQFKE	not soluble
